Measurements taken from paper PMC9482650, “Quantitative fragmentomics allow affinity mapping of interactomes” (Nature Communications, 2022).

T1: DLG3_1, Q92796
T1 sequence (Q92796 125-227, limits assumed, looked up): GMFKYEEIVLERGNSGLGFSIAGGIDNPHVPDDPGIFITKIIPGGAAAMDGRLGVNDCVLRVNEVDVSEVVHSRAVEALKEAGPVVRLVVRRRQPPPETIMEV


Assays:
DLG3_1, Q92796 = target: T1, DLG3_1, Q92796; assay: holdup assay; design: key: below the threshold = too weak to quantify, mostly under pKd 3.1 to 4
LNX1_2, Q8TBB1 = assay: holdup assay; design: key: below the threshold = too weak to quantify, mostly under pKd 3.1 to 4
[1] = plain residues with an end cap or a label only (N-terminal biotin on a linker: ado-ado)
[2] = modified: phospho on T at position -2 from the C-terminal residue

Chain of LNX1_2, Q8TBB1 (Q8TBB1 371-470): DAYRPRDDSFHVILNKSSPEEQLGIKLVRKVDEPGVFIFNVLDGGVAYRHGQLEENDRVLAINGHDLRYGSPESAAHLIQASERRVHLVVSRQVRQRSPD

Binder | pKd (DLG3_1, Q92796; [1]) | pKd (LNX1_2, Q8TBB1; [1]) | pKd (DLG3_1, Q92796; [2]) | pKd (LNX1_2, Q8TBB1; [2])
SGSLKLMTTV [DACT1, Q9NYF0] | 4.45 | 3.84 |  | 
TASPAKETSF [SLC2A7, Q6PXP3] | below the threshold | below the threshold |  | 
LGRSTPQSEV [DGKH, Q86XP1] | below the threshold | below the threshold |  | 
KKAPTNEFYA [SDC4, P31431] | below the threshold | below the threshold |  | 
HSGYRLNDYV [CLDN14, O95500] | below the threshold | 3.61 |  | 
IKAIVDLTGL [TRAF2, Q12933] | below the threshold | below the threshold |  | 
VKPQVSESKL [ACOT8, O14734] | below the threshold | below the threshold |  | 
EALLQMESVA [CAVIN3, Q969G5] | below the threshold | below the threshold |  | 
LRSPRTPSEV [OR10G3, Q8NGC4] | below the threshold | below the threshold |  | 
RRLPGKETMA [GRIK2, Q13002] | below the threshold | below the threshold |  | 
SKPTRRETEV [HPV35-E6_-2P, P27228] |  |  | below the threshold | below the threshold
QSARLWETSI [ADAM22, Q9P0K1] | below the threshold | below the threshold |  | 
RRRESYSTTV [EVI5, O60447] | 5.06 | 3.99 |  | 
FNSYSLTGYV [CLDN2, P57739] | below the threshold | 4.19 |  | 
SAAKVLTSMC [GHRHR, Q02643] | below the threshold | below the threshold |  | 
LKVPPEERLI [CRB2, Q5IJ48] | below the threshold | below the threshold |  | 
PPYRHRNTVV [ERBB4, Q15303] | 4.21 | 3.54 |  | 
EKKTLIGIKL [GOT1L1, Q8NHS2] | below the threshold | below the threshold |  | 
YNNCLEILRV [DCAF7, P61962] | below the threshold | 4.1 |  | 

Binder | pKd (DLG3_1, Q92796; [1]) | pKd (LNX1_2, Q8TBB1; [1]) | pKd (DLG3_1, Q92796; [2]) | pKd (LNX1_2, Q8TBB1; [2])
ETQVTAETVI [TMEM225B, P0DP42] | below the threshold | below the threshold |  | 
QGPVETESVV [SLC45A4, Q5BKX6] | 3.88 | below the threshold |  | 
LPAHHNATRL [SLC34A1, Q06495;Q06495-1] | below the threshold | below the threshold |  | 
YRLAQESGLV [ABCC6, O95255] | below the threshold | below the threshold |  | 
SNAGNTATKA [NOSTRIN, Q8IVI9] | below the threshold | below the threshold |  | 
MLSKQSESAI [FLVCR1, Q9Y5Y0] | below the threshold | below the threshold |  | 
GSGAVEMESV [AQP6, Q13520] | below the threshold | below the threshold |  | 
PRAEAEDSFL [PDGFRB, P09619] | below the threshold | below the threshold |  | 
TACCHSETVV [TGFA, P01135] | 4.19 | 3.9 |  | 
CLREWCDAFL [BANF1, O75531] | below the threshold | below the threshold |  | 
RRISSLESEV [GRIN2C, Q14957] | 4.37 | below the threshold |  | 
KKMPSIESDV [GRIN2A, Q12879] | 4.35 | below the threshold |  | 
SARSRLSSNL [HCN2, Q9UL51] | below the threshold | below the threshold |  | 
RKPKPSSSCC [RAB9A, P51151] | below the threshold | below the threshold |  | 
QSPANIYYKV [EFNB1, P52799] | below the threshold | 3.61 |  | 
TSSMRGMDAV [RSRC2, Q7L4I2] | below the threshold | below the threshold |  | 
TKGPRGPTRV [SAPCD1, Q5SSQ6] | 3.96 | below the threshold |  | 
TLPRKRMSSI [GPRC6A, Q5T6X5] | below the threshold | below the threshold |  | 
